Experimental data published in the domain aggregation screens of Martell et al. (2025).

test: soluble fraction after stress (log2 fold change); higher = more stays soluble; pooled small domains, quantitative proteomics; details: stress: pH 4
Summary of the method: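 Aggregation propensity is estimated from the fold change in each domain's soluble amount after acid stress. Pooled small-domain libraries were stressed at pH 4, and higher log2 values mean more stayed soluble.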

| Sequence | soluble fraction (log2) |
| --- | --- |
| HMSNFGALLRMRRLEAGLSYRGLAEQSGLARATLVNLEQGLTKPSPLTMRRLASVKALRLTEL | 0.00389 |
| HMSNFGERLRALRQDRQMTLQQASKVTGVAQSTLSKMENNQLSPTFNLMQKLAIGLGIDMPQLFAPVK | -0.18 |
| HMSNGEWQQGSDGRWWYKFSDGTYPKNKVETIGGKKYGFDSEGWMLANTTKEFSGTTYSFGADGVATS | -0.0709 |
| HMSNHYETLGVEQTASVDEIKKAYRRLSLQYHPDRNTTSDAVGKFQKINDAHEILSDKQSRTEYDMQLK | 0.0857 |
| HMSNIQLAANLQRLRKDHHFTQTQFSKKLNISRQAYSNYETGKRIPDLDIIIRIANIYHISLENLL | -0.203 |
| HMSNKYYETILDWFKSQIMSGELKEGDTIPSERELATRFGVSRVPVREALRILEYIGIVSNTADGMTVQKV | -0.976 |
| HMSNLKKRRLEKNLTLDDVGKLVGVSAATISRWESGDIENMRSDKIVKLANALEISPAVILGW | -0.641 |
| HMSNLLKNILDVLEKEGPLKARKIALLLDSTRTTITHTTINSELYKALDLEGLTKNEQNIWSYVT | -0.389 |
| HMSNLVEVPAVIGRMKEDAITMLISAGLEPAVTYDEYPLVKENLVADQSVAPGQKVEKGSFVTITVSRS | 0.22 |
| HMSNMESLIGREATVIEMIPAEDVGRVKIDGDEWQAVLAREDDNEPRRDIQVGEKVIIVSYDSIILTVKTK | -1.02 |
| HMSNNENSILEKLNSFSGKKIKVSHTIGSLAARLDEYPKIKMWLYKRIRENSINEQAYKYLIFIIERKVR | -0.0495 |
| HMSNPADDVVDLLRQLRLPHMRAAAPELLATAKAQRWDPAEAIRALLTEELAGRQASSINARRK | -0.226 |
| HMSNPPIRIGKKALHELLTTWLSLLSRDGVAYLVVQKNLGADSLTAWLRDQGFPSEKIASKKGFRIIEVH | 0.0506 |
| HMSNRDNPVVLDFKKVKSTEQLDNILEEYIRENFEGYTVKGRMFSSDEGKFIIALALKDDDGKRALVYFDV | -1.06 |
| HMSNRIDKIKLNHWLNIRKTSLDVLNNLLSKHLNHKINFENLENLDEQAIEKISEVLSIPKNKLLINDDVP | -0.226 |
| HMSNTVEDLIDDIGTVTKDSKDKIDAARKAYDGLTEDQKKLVPDSVLKTLTDAEAAYAKLTK | 0.191 |
| HMSNWYGTVVKIQPRPNAQAADTAVVKLLDGSEHRFPVWADHLTTIEVGSRLKKLSGGWDPVLMDPEETF | -0.573 |
| HMSNWYKNNETDQIWWKDTPDSVGEWLFSFDKKQVFNMFADYPHNLTPEQKKIFDEENPEWSDRP | -0.981 |
| HMSNYPYLLRTYEGKLAVFTDDLVQPDLVFDVYVRTLPELDQQQLSRGIRVKTYDELTSMIEDYI | -0.956 |
| HMSPAVEDYLEQIHNLIAQKGYARVVDIAGNLKISQASVTNMIQRMDADGLVVYERYRGVVLTETGRK | -0.456 |
| HMSPDLNEVEEKVFRALNGVESMHVNKLGIELNLPVSELFFTLLELEMKNVVKALPGGMYKL | -1.1 |
| HMSPFYILDEVEAALDDTNLGRLLEIYEELRENSQLLVITHQKRTMEVGDALYGVTMRGDGVSAVISQRLR | -1.74 |
| HMSPKYLELVRWINTQIQEKKLTAGQKMYSENELKEMFGVSRQTVRHAISVLEGEGMIRRVRGSGTYINDN | -0.043 |
| HMSPLALLTPRELDILRAMTAGASNKEIARQFAIAETTVKIHVQHILRKLDVTTRVHAAVMASESGL | -1.09 |
| HMSPPALAVQRDGSNVQISWPGAEEGWRLESSAEPSGAAWDLIAQNPTPVGGRWTVSLTEPTGRRFYRLVK | 0.039 |

| Sequence | soluble fraction (log2) |
| --- | --- |
| HMSPSLVEAMRLRMYEMGLNQAKLSELLGVSPSRVSDYLTGRSEPTLKVARDISRKLNIDASIVLG | -0.0682 |
| HMSPSQFRSKSLLVEINFASRQMDGEILQGDYAGKRLSELTEAEVQELTAWLKQSDRESFVLLQAYLLRSG | -1.17 |
| HMSPSSPNQILGQYPKTKNDIILSSGRYGPYLKYNKKNYSLGNNISVEKLSLEEAVKIIDLKDKK | 0.0926 |
| HMSPTDKATVNVYALNVRTGPGTNYKVLGSVIKGTELQVLGSSGKWLKVKYGNREAYVAGWLVK | 0.118 |
| HMSPTEQEKIGLFIKKLREEKNLTQEAFASLLKTSQSAVARIESGNQNITIEQLMKIGEVLNHNIVSI | -0.215 |
| HMSQDPLETYYPQWSAAVKQSNPDAEIIRDTDGKYYVEGMTKNRVAVIYENPHLVRLVNATTNVHVE | 0.238 |
| HMSQDTLIGRVGVIVIGQARTGSPAQVRVKDGFGQTHYVMAEPDSEGVLKQGEAVLLVSLEGNTFKAILNP | ≥ 0.43 |
| HMSQDVLLKRSGDQIEVKITEVGEDYLKYKKKGFENGPDFKINTSDVFMVTFANGEKMMFEES | -2.15 |
| HMSQEAKLAMPVTDLRLSARTLNALELANIRTVRDLVSHTEEQLLELRNFGETALAEVKEKLAALGLRLGM | -0.436 |
| HMSQESIMPNLVGSTEDEAKAIAVEYGFQLNVISRVNNSQYPAGVIIDQNVDEGVRIKAGYPVGVTIS | -0.0416 |
| HMSQIAENNQKYVGTIQKVLVEGTSKNNDDMLTGRTDSNKVVIFEGDKKLIGNMVELKIVSEHMWYLKGEL | -0.0811 |
| HMSQISKLWRPSEDVTEILTRSGMDSEFLEGLIPEFIIYWSERADVLVSYNSKFIEHARLKWAQHSAEIKT | -1.94 |
| HMSQLLHELLAHVLKDRIISGEWPAGSRIMSEHALQERYGVSRGTVRRALAQLVQEGLLVQRKGKGTFVTR | 0.35 |
| HMSQLVTGVLRNLNDISEKIAAGKAVPEMLGRLENMQQMIANLKGNEGLIKSISILTRSAQDALR | -0.0398 |
| HMSQPLYWQIRRMVIDHDDANDVLQNTFIKAWSNIGSFRGDAKFSTWLYKIAVNESITFINKKKVQN | -0.0472 |
| HMSQPYFELAAADMEALRNALSTIREIESVVLSGKIFHVEVREDLDPGTMNKLAFERGITLTHLVKKKN | -1.06 |
| HMSQRINLNSASIEDMQSLDISNEKIDSIIDYRNRYGNIHNIYELLKIPGITIGDIHSIRNAVTVEIPH | -0.472 |
| HMSQSLSGWAAKDLEVKSGADASYRTVGRLPKGSKVSGKIINGYLHIEFDGSMRYVPVSGISKTE | 0.156 |
| HMSQSYHLADRGQSLGTLDYQAVLVGLATGRLSPDTLSWQEGEAGWVALRQRPEFASGVSAVASL | -0.753 |
| HMSRAHTELEEKLLTMLEENDMTLPMRVISNIASRIEGIIIPEEKILEVLKKSYDRYREHQMD | -0.784 |
| HMSRARSRQTSMLEAVAGLGPARRRALLKQFGGLQGVLRAGIEDLSRAPGIGPALAQAIFEHLHPGA | -0.0797 |
| HMSREQARRFYFDTWAKHRASQPLTDLEKIALTVMLLHPEYHSLLDKPDHYVDKDYSPEAGQTNPFLHM | -0.474 |
| HMSRIDRKGLTSQIVNHLSKNPGKNFTLKQFFRNLKLNTHPLKMLAVDVLNKLLDTNFITRNEDGEFFLKA | -0.123 |
| HMSRLMIVTPDGRIMDDVPEFGEVRTTTDVNGRVLVLDRNNVVIGFEMTPREYRREFGRNPF | 0.0337 |
| HMSRQAPIGHRIRGRRKDIGMTQNALAKAAGISPSYLNLIEHNRRSIGGGLLMRIAAILDIHPHTL | 0.0837 |
